From US11407825B2, “NaPi2b-targeted polymer antibody-drug conjugates and methods of use thereof” (Mersana Therapeutics, Inc., priority 2018, dated 2022)

System: NaPi2b expressing tumors
Experiment: Phase 1b study of XMT-1536: duration on study and reason for discontinuation
Type: in vivo, human
Text: The study presented herein is an open label, multi-center Phase 1b study of XMT-1536 administered as an intravenous infusion once every three or four weeks. The dose escalation (DES) part of the study will establish the maximum tolerated dose (MTD) or recommended Phase 2 dose (RP2D) for XMT-1536 in patients with a number of tumor types likely to express NaPi2b, with a focus on patients with platinum-resistant ovarian cancer and non-squamous non-small cell lung cancer (NSCLC). […] The RP2D may differ from the MTD and may take into account tolerability, pharmacokinetic and pharmacodynamic measures, and efficacy of XMT-1536 based on RECIST 1.1. After the first cycle, patients may continue to receive XMT-1536 until disease progression provided the drug is well-tolerated and patients continue to derive clinical benefit in the opinion of the Investigator. The DES segment of the study utilized an accelerated titration design. The first 3-week cycle of treatment constitutes the dose limiting toxicity (DLT) evaluation period. For the first two dose levels, a minimum of 1 patient was treated at each dose level. If this patient experiences a treatment-emergent adverse event of Grade 2 or higher, 2 additional patients will be added at this dose level, and the study will subsequently follow a 3+3 design, as described below. […] Starting with Dose Level 3, the study will follow a standard 3+3 design, with 3 patients enrolled initially at each dose level. […] However, in the event of 1 DLT, 3 additional patients will be enrolled at the same dose level. Any dose level with 2 or more DLTs will be considered to exceed the MTD and subsequent patients will be enrolled at lower dose level(s). After the first cycle, patients may continue to receive XMT-1536 until disease progression if the drug is well-tolerated and patients continue to derive clinical benefit in the opinion of the Investigator.
After an August 2018 protocol amendment, each cycle will be 4-week (28 day) dose cycle. The first two, 4-week cycles of treatment (56 days) constitutes the dose limiting toxicity (DLT) evaluation period. Beginning with this amendment, up to 10 patients will be enrolled for evaluation at 20.0 mg/m^2 under the new 4-week cycle dose regimen. If that dose is cleared by the SRC, subsequent dose groups will follow a modified 3+3 design. Three patients will be enrolled initially and if toxicity issues arise, the SRC will review all pertinent data and may decide to add more patients to fully evaluate a dose in question and/or lower the dose. […] The observation period for DLTs is 56 days, between Day 1 through the end of Cycle 2 which includes the pre-dose assessments before receiving the Cycle 3 dose. A maximum of ten patients will be enrolled per dose level prior to the SRM. that will be conducted no later than 5 days after at least the sixth patient dosed in each level has completed Cycle 2, Day 28 evaluations. The data available for the patients dosed in all prior will be factored into the data review for each applicable dose escalation SRM. Any dose level with 2 or more DLTs occurring in 6 or fewer treated patients will be considered to exceed the MTD and subsequent patients will be enrolled at lower dose level(s). After the second cycle, patients may continue to receive XMT-1536 until disease progression if the drug is well-tolerated and patients continue to derive clinical benefit in the opinion of the Investigator. After completion of DES, the EXP segment of the study will be opened.
Treatment will continue indefinitely unless one of the following occurs: disease progression, inter-current illness that prevents further administration of treatment, unacceptable adverse events or pregnancy, patient non-compliance with the protocol, patient withdraws consent for participation from the study, and/or general or specific changes in the patient's condition render the patient unacceptable for further treatment in the judgment of the Investigator.

[1] = doses of 20 mg/m^2 and higher (n=18)

B1: XMT-1536: about 10-15 molecules of auristatin F-hydroxypropyl amide conjugated to a cysteine moiety of NaPi2b monoclonal antibody XMT-1535 via a PHF scaffold (conjugate, chains of the INN, looked up)
VH: QVQLVQSGAEVVKPGASVKMSCKASGYTFTGYNIHWVKQAPGQGLEWIGAIYPGNGDTSYKQKFRGRATLTADTSTSTVYMELSSLRSEDSAVYYCARGETARATFAYWGQGTLVTVSS
VL: DIQMTQSPSSLSASVGDRVTITCSASQDIGNFLNWYQQKPGKTVKVLIYYTSSLYSGVPSRFSGSGSGTDYTLTISSLQPEDFATYYCQQYSKLPLTFGQGTKLELK
modifications: auristatin F-hydroxypropyl amide via PHF scaffold
notes: about 10-15 molecules of auristatin F-hydroxypropyl amide conjugated to a cysteine moiety of NaPi2b monoclonal antibody XMT-1535 via a PHF scaffold
- Treatment duration >16 weeks (All NSCLC, N 3): 33%
- Treatment duration >16 weeks, patients (All NSCLC, N 3): 1
- Treatment duration >16 weeks (All Ovarian Cancer (OC), N 19): 42%
- Treatment duration >16 weeks, patients (All Ovarian Cancer (OC), N 19): 8
- discontinued for Progressive Disease per RECIST, patients (DL1 3 mg/m^2, n = 1): 1
- discontinued for Progressive Disease per RECIST, patients (DL2 6 mg/m^2, n = 1): 1
- discontinued for Clinical Progression, patients (DL3 12 mg/m^2, n = 7): 4
- discontinued for Progressive Disease per RECIST, patients (DL3 12 mg/m^2, n = 7): 3
- discontinued for Clinical Progression, patients (DL4 & 4A 20 mg/m^2, n = 13): 2
- discontinued for Progressive Disease per RECIST, patients (DL4 & 4A 20 mg/m^2, n = 13): 7
- discontinued for Clinical Progression, patients (DL5 & 5A 30 mg/m^2, n = 11): 3
- discontinued for Progressive Disease per RECIST, patients (DL5 & 5A 30 mg/m^2, n = 11): 6
- Treatment duration >16 weeks (NSCLC ≥ 20 mg/m^2, N 2): 50%
- Treatment duration >16 weeks, patients (NSCLC ≥ 20 mg/m^2, N 2): 1
- Treatment duration >16 weeks (OC + NSCLC ≥ 20 mg/m^2, N 18): 56%
- Treatment duration >16 weeks, patients (OC + NSCLC ≥ 20 mg/m^2, N 18): 10
- Treatment duration >16 weeks (OC ≥ 20 mg/m^2, N 16): 57%
- Treatment duration >16 weeks, patients (OC ≥ 20 mg/m^2, N 16): 9
- Treatment duration >16 weeks (OC ≥ 30 mg/m^2, N 7): 43%
- Treatment duration >16 weeks, patients (OC ≥ 30 mg/m^2, N 7): 3
- discontinued for Clinical Progression (Total, n = 34): (26%)
- discontinued for Clinical Progression, patients (Total, n = 34): 9
- discontinued for Progressive Disease per RECIST (Total, n = 34): (53%)
- discontinued for Progressive Disease per RECIST, patients (Total, n = 34): 18
- treatment duration of >16 weeks [1]: 50%
- treatment duration of >16 weeks, patients [1]: 9
